Biological target: S-tagged long RECK isoform (human) (UniProt O95980)
Assay: co-IP

Chain of UniProt O95980 (O95980 23-942): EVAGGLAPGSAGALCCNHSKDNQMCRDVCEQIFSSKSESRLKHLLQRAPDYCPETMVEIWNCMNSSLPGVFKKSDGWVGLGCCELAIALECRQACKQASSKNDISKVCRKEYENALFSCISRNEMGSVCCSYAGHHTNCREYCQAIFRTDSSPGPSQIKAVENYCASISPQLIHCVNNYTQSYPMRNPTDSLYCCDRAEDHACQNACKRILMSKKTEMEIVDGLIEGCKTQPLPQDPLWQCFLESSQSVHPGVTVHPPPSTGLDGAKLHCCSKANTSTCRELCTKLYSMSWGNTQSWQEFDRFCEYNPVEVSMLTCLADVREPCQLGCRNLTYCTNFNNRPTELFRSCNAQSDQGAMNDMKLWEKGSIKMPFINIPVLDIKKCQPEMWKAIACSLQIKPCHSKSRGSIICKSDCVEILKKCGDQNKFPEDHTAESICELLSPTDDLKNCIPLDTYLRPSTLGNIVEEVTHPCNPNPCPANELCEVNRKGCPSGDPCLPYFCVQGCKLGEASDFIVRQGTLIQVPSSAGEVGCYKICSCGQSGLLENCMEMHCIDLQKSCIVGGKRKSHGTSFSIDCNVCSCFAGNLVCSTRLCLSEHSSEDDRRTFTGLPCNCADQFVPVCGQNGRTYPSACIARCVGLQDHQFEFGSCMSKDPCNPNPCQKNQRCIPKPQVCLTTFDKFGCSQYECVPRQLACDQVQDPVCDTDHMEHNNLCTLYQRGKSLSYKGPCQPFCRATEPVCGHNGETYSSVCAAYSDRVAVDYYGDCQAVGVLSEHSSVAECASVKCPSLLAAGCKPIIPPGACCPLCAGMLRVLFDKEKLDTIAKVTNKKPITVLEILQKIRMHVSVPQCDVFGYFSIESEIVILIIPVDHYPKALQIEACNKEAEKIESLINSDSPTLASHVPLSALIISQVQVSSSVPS

percent reduction of MMP9 co-immunoprecipitated with long RECK: 88%
Substance: Flag-tagged short RECK isoform (natural protein)
